The record followed here is patent publication US10280218B2, “Antibodies binding to BMP4, and uses thereof” (ACADEMISCH MEDISCH CENTRUM, priority 2014, dated 2019).

Experiment [1] concerns the target T1, BMP6 (Homo sapiens, UniProt P22004).
T1 sequence (P22004 375-513): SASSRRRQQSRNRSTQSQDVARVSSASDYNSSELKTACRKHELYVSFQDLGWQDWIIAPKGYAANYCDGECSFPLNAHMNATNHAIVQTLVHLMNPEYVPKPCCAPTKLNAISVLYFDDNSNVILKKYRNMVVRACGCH
The experiment is described as follows: Surface plasmon resonance (SPR), BMPs injected over VHH-coated chip. The conditions noted are these: molecule coupled to chip; unit inferred; — not defined there (Table 1: No binding detected). The procedure: (§1) To confirm their BMP specificities and to elucidate their binding affinities, our VHHs were subjected to surface plasmon resonance (SPR) analysis. In a first set of experiments, controls and VHHs (either as monomers or dimers) were coupled to SPR chips and the measurement of BMP affinities was obtained by injecting the different BMPs to the plate.
(§2) Serial dilutions (2.0-10 μg/ml) of purified VHHs were spotted on an amine-specific SensEye gold-film gel-type SPRchip (Ssens), using a Continuous Flow Microspotter (Wasatch Microfluidics, Salt Lake City, Utah, United States) as described (Lokate et al., 2007). BMP binding was analyzed on an IBIS MX96 (IBIS Technologies, Enschede, The Netherlands) instrument by performing injections with dilution series (0.05-2.0 μg/ml) of recombinant BMPs on the VHH-coated chip. In each injection, BMPs were injected and incubated for 8 min, followed by 15 min thorough washing with binding buffer (PBS+0.05% Tween20+0.05% sodium azide) to measure dissociation. Epitope binning was done by injecting VHH dilutions (2.0 μg/ml) over the chip, immediately after the dissociation step. Injections with blank binding buffer were used as reference. After each concatenated injection, the chip was regenerated with 10 mM glycine-HCl, pH 2.0. Experimental data were processed with SPRintX software (IBIS Technologies) and kinetic parameters were determined using Scrubber2 software (BioLogic Software, Campbell, ACT, Australia). Binding constants were obtained by global fitting to a one-site binding model.

Experiment [2] addresses T2, BMP5 (Homo sapiens, UniProt P22003).
T2 sequence (P22003 317-454): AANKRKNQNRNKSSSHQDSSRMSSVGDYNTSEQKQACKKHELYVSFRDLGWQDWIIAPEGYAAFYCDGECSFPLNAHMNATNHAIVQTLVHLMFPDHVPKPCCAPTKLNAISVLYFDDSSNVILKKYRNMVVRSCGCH
Described as above. In kind it is binding. The settings on record: molecule coupled to chip; unit inferred. The procedure: as §1, §2

Experiment [3] has as its target T3, BMP7 (Homo sapiens, UniProt P18075).
T3 sequence (P18075 293-431): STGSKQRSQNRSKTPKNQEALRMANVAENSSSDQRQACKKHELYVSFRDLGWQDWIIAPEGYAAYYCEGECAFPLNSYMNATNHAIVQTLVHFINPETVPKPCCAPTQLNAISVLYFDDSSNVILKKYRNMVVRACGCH
The description is as above. The experiment is classed as binding. The settings on record: for Kd: molecule coupled to chip, unit inferred, — not defined there (Table 1: No binding detected). Here is the method: as §1, §2

Experiment [4] has as its target T4, BMP4 (Homo sapiens, UniProt P12644).
T4 sequence (P12644 293-408): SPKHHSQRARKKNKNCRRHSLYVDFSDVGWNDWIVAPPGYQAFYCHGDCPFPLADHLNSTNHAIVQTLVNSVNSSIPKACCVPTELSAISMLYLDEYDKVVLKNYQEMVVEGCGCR
The description is as above. In kind it is binding. More on the design: purchased R&D systems; ka (BMP4): unit not given here. The settings on record: molecule coupled to chip. Here is the method: as §1, §2

The subject of experiment [5] is mouse intestinal organoids. Put plainly: Ex vivo mouse intestinal organoid culture (number and growth of organoids). The experiment is classed as cell-based. The conditions noted are these: VHHs in place of Fc-Noggin, 5 days. The procedure:
Finally, the VHHs were tested in an intestinal organoid culture system for their ability to neutralize the function of BMP4 ex vivo. Inhibition of BMP activity is one of the requirements to maintain Intestinal Stem Cells in vitro cultured as “organoids” that mimic crypt-villus structures and is usually provided by the addition of Noggin to the media. Murine small intestine organoids were cultured in the presence or absence of the VHH biheads and compared to Noggin. To precisely determine which BMPs are present in these cultures, BMP secretion was measured in the conditioned media of intestinal organoids grown without Noggin for three days. Whereas BMP2, BMP4 and BMP6 could be detected by ELISA (FIG. 14A), BMP5 levels were negative, most likely due to the low sensitivity of the ELISA assay (>250 pg/mL), and not due to the lack of BMP5 in these cultures. Indeed, analysis of the protein lysates of these organoids, detected the presence of BMP2, BMP4, BMP5 and BMP6 (FIG. 14B). Next, freshly isolated crypts from murine small intestines were cultured with the VHHs and tested for their ability to provide endogenous BMP inhibition and to sustain organoid cultures ex vivo. […]
Organoids were cultured as previously described (Sato et al., 2009). […] Crypts were counted and resuspended in matrigel. […]

For experiment [6], the target named is T4, BMP4. Put plainly: BMP specificity of VHH antibodies (summary of binding and inhibition of BMP function). More on the design: purchased R&D systems; key: ●▪: Binding and inhibition of BMP function.; ●□: Binding, but no inhibition.; ○: No binding. The conditions noted are these: summary of SPR and functional experiments. An excerpt:
Thus, we have generated several VH Hs that can be classified into four groups (Table 3): BMP4, BMP2/4, BMP2/4/5 and BMP2/4/5/6-specific.

B1: hNoggin (protein)
chain: QHYLHIRPAPSDNLPLVDLIEHPDPIFDPKEKDLNETLLRSLLGGHYDPGFMATSPPEDRPGGGGGAAGGAEDLAELDQLLRQRPSGAMPSEIKGLEFSEGLAQGKKQRLSKKLRRKLQMWLWSQTFCPVLYAWNDLGSRFWPRYVKVGSCFSKRSCSVPEGMVCKPSKSVHLTVLRWRCQRRGGQRCGWIPIQYPIISECKCSC
On to B1, for which the dissociation constant Kd (usually the equilibrium constant for the complex coming apart) stood at 0.05 µM in experiment [1], 0.068 µM in experiment [2] and 0.08 µM in experiment [3]. Moreover, the “kd (BMP4)” value in experiment [4] is listed as 3.9 10^−5 sec^−1.

B2: C8E7: E7 linked to C8, hetero-dimer VHH bihead (protein)
chain: EVQLVESGGGLVQAGGSLRLSCAASGRTFRINDMGWYRQAPGKSRDMVARITSGGNTNYADSVKGRFTISRDNAKNTVYLQMNSLKPEDTAVYYCNADGLRFDSTRYRPFDSWGQGTQVTVSSGGGGSGGGGSEVQLVESGGGLVQAGGSLRLSCAASGSIRGFVAMAWYRQAPGKQREWVATVTNGGTLYGDSVKGRFTGSRDNAKNTVYLQMNSLKPEDTAVYYCALRQIGASGYDYWGQGTQVTVSS
In the case of B2, the Kd in experiment [1] came to 0.05 µM; in experiment [2], 0.095 µM; in experiment [3], 0.031 µM. Also, the “unspecific binding of dimers to BMP7 (SPR, in words)” value in experiment [3] (in contrast to the functional results) is “shown to bind”. Besides, the “maintenance of organoid culture growth / stem cell proliferation” value in experiment [5] is recorded as “able to maintain culture growth of organoids”. The “ka (BMP4)” value in experiment [4] came to 34.6. Further, in experiment [4], the “kd (BMP4)” value is reported as 3.4 10^−5 sec^−1. For the same molecule, in experiment [6], the “BMP4: binding and inhibition of BMP function” value was “●▪”.
